B1: TRL854 (antibody, V domains shown)
VH: QVQLVESGAEVKKPGASVRVSCKGSGYTFTAYHMHWVRQAPGQGFEWVGWINPNSGATYYTSTFEGRVTMTRDTSITTAYMELSSLRSDDTAVYYCATDIVVERDASLGGFNSYGMDVWGQGTTVTVSS
VL: DIEMTQSPLSLPVTPGEPASISCRSSQSLLHSNGYNHLAWYLQKPGRSPHLLIYLASTRASGVPDRFSGSGSGTDFTLKISRVEAEDVGIYYCMQSLQTSITFGQGTRLEIK
B2: TRL848 (antibody, V domains shown)
VH: QVQLLESGGDVVQPGTSLRLSCAASGFSLWTSGMHWVRQAPGKGLEWVAVMSYDETKKYYADSVRGRFSISRDNSRNTLYLQMNSLRVEDTAVYFCAKPRLDYLDYFHAADSWGQGTLVSVSS
VL: DIVLTQPPSVSVAPGQTATITCGGNYIGSKSVNWYQQRPGHAPVLVVYDDSDRPSGIPDRFSGSNSRSTATTATLTISRVEAGDEADYYCQVWETSEDLWVFGGGTKLTVL
B3: TRL847 (antibody, V domains shown)
VH: QVQLVESGGGLVQPGGSLRLSCVASGFTFSRFSMNWVRQAPGMGLEWVSYISDTGRTIYYADSVKGRFTISRDNDKNTLYLQMKSLRDEDSAFYYCARDPDTPFVRAFDSWGQGVLVTVSS
VL: DIVMTQSPSFLSASVGDRVTITCRTSQVISSYLAWYQQRPGKAPKLLIYAASTLQSGVPSRFSGSGSGTRFSLTISNLQPEDFATYFCQQLTTYPPITFGQGTRLEIK

Biological target: biotinylated HA antigen of B/Florida/04/2006 (influenza B virus B/Florida/04/2006, biotin (site not stated))
Assay: BLI

Binder | Kd [nM]
B1 | 8.8
B2 | 1.7
B3 | 0.7
